Results on 24 sequences are retold here after the Immune Epitope Database (IEDB).

One assay has as its target HLA-A*68:02. Briefly: IEDB peptide-MHC binding, cellular MHC/competitive/fluorescence; ≥ and ≤ were set here for values at or beyond the usual limits of such assays.
For another assay, the target named is HLA-A*02:03. The assay is described as follows: IEDB peptide-MHC binding, purified MHC/competitive/radioactivity; ≥ and ≤ were set here for values at or beyond the usual limits of such assays.
The target of another assay is HLA-A*02:01. Described as above.
In the next assay the target is HLA-A*02:02. The assay is described as above.
The target in a further assay is HLA-A*02:06. The description is as above.
The mark [1] stands for this setting: source organism: Vaccinia virus WR.
The mark [2] stands for this setting: source organism: Hepacivirus hominis.

Regarding ILFQNNDINA, the IC50 with HLA-A*68:02 (setting [1]) turned out to be 9980 nM; with HLA-A*02:03 (setting [1]) it was 407 nM; in the assay with HLA-A*02:01 (setting [1]), 549 nM; with HLA-A*02:02 (setting [1]), 23 nM; in the assay with HLA-A*02:06 (setting [1]) it was 3180 nM.

On to ILGIIITVGM, for which the IC50 is 38300 nM with HLA-A*68:02 (setting [1]); 265 nM with HLA-A*02:03 (setting [1]); 1270 nM with HLA-A*02:01 (setting [1]); 288 nM with HLA-A*02:02 (setting [1]); 4710 nM with HLA-A*02:06 (setting [1]).

For the sequence ILHNIYRLFT, the IC50 with HLA-A*68:02 (setting [1]) came out at 40900 nM; with HLA-A*02:03 (setting [1]), 11 nM; with HLA-A*02:01 (setting [1]), 231 nM; with HLA-A*02:02 (setting [1]), 125 nM; with HLA-A*02:06 (setting [1]) it was 1210 nM.

As to ILLSRCLWWT, the IC50 with HLA-A*68:02 (setting [2]) was ≥ 70000 nM; with HLA-A*02:03 (setting [2]), 1100 nM; with HLA-A*02:01 (setting [2]), 293 nM; with HLA-A*02:02 (setting [2]), 4740 nM; with HLA-A*02:06 (setting [2]) it was 246 nM.

Turning to ILSLETVKM, the 50% inhibitory concentration (IC50) in the assay with HLA-A*68:02 (setting [1]) came to 9700 nM; with HLA-A*02:03 (setting [1]) it was 12 nM; with HLA-A*02:01 (setting [1]), 204 nM; in the assay with HLA-A*02:02 (setting [1]), 4.8 nM; with HLA-A*02:06 (setting [1]), 280 nM.

Turning to ILSNKLLYAA, the IC50 in the assay with HLA-A*68:02 (setting [1]) is 12000 nM; with HLA-A*02:03 (setting [1]) it was 1110 nM; with HLA-A*02:01 (setting [1]), 51 nM; with HLA-A*02:02 (setting [1]) it was 8.1 nM; with HLA-A*02:06 (setting [1]), 150 nM.

For IMAFILGIII, the IC50 with HLA-A*68:02 (setting [1]) came out at 14700 nM; in the assay with HLA-A*02:03 (setting [1]), 3160 nM; in the assay with HLA-A*02:01 (setting [1]), 1110 nM; with HLA-A*02:02 (setting [1]) it was 632 nM; in the assay with HLA-A*02:06 (setting [1]), 3190 nM.

As to IMEIVSHLRA, the IC50 with HLA-A*68:02 (setting [1]) was 19700 nM; with HLA-A*02:03 (setting [1]), 396 nM; with HLA-A*02:01 (setting [1]), 1190 nM; with HLA-A*02:02 (setting [1]) it was 955 nM; with HLA-A*02:06 (setting [1]), 4410 nM.

In the case of IMRNFLRSI, the IC50 was determined as 62700 nM with HLA-A*68:02 (setting [1]); 0.4 nM with HLA-A*02:03 (setting [1]); 2060 nM with HLA-A*02:01 (setting [1]); 485 nM with HLA-A*02:02 (setting [1]); 3920 nM with HLA-A*02:06 (setting [1]).

With IMRNFLRSIA, the concentration for half-maximal inhibition (IC50) in the assay with HLA-A*68:02 (setting [1]) was 54200 nM; in the assay with HLA-A*02:03 (setting [1]) it was 122 nM; in the assay with HLA-A*02:01 (setting [1]) it was 813 nM; with HLA-A*02:02 (setting [1]), 60 nM; with HLA-A*02:06 (setting [1]), 544 nM.

As to ITLILSNKLL, the IC50 in the assay with HLA-A*68:02 (setting [1]) was found to be 6490 nM; in the assay with HLA-A*02:03 (setting [1]), 4690 nM; with HLA-A*02:01 (setting [1]), 2200 nM; with HLA-A*02:02 (setting [1]), 1090 nM; in the assay with HLA-A*02:06 (setting [1]) it was 3890 nM.

As to IVSHLRASTT, the IC50 with HLA-A*68:02 (setting [1]) was found to be 60600 nM; with HLA-A*02:03 (setting [1]) it was 111 nM; in the assay with HLA-A*02:01 (setting [1]), 896 nM; with HLA-A*02:02 (setting [1]), 139 nM; with HLA-A*02:06 (setting [1]), 173 nM.

For KIIAVFDSKL, the half-maximal inhibitory concentration (IC50) was 31700 nM with HLA-A*68:02 (setting [1]); 57 nM with HLA-A*02:03 (setting [1]); 978 nM with HLA-A*02:01 (setting [1]); 25 nM with HLA-A*02:02 (setting [1]); 59 nM with HLA-A*02:06 (setting [1]).

In the case of KIILFQNNDI, the IC50 was found to be 17200 nM with HLA-A*68:02 (setting [1]); 2000 nM in the assay with HLA-A*02:03 (setting [1]); 3660 nM with HLA-A*02:01 (setting [1]); 1610 nM with HLA-A*02:02 (setting [1]); 2170 nM with HLA-A*02:06 (setting [1]).

For the sequence KILSDENYL, the half-inhibitory concentration (IC50) with HLA-A*68:02 (setting [1]) is 46600 nM; with HLA-A*02:03 (setting [1]) it was 1170 nM; with HLA-A*02:01 (setting [1]), 121 nM; with HLA-A*02:02 (setting [1]), 196 nM; with HLA-A*02:06 (setting [1]), 28 nM.

As for KILSDENYLL, the IC50 in the assay with HLA-A*68:02 (setting [1]) was ≥ 70000 nM; with HLA-A*02:03 (setting [1]), 3770 nM; with HLA-A*02:01 (setting [1]), 15 nM; with HLA-A*02:02 (setting [1]), 25 nM; with HLA-A*02:06 (setting [1]), 16 nM.

With KINEMVDEL, the IC50 in the assay with HLA-A*68:02 (setting [1]) was found to be 48400 nM; with HLA-A*02:03 (setting [1]), 76 nM; in the assay with HLA-A*02:01 (setting [1]), 291 nM; in the assay with HLA-A*02:02 (setting [1]), 1.4 nM; in the assay with HLA-A*02:06 (setting [1]) it was 317 nM.

With KINPLLDEPL, the half-inhibitory concentration (IC50) came out at 10100 nM with HLA-A*68:02 (setting [1]); 304 nM with HLA-A*02:03 (setting [1]); 1470 nM with HLA-A*02:01 (setting [1]); 53 nM with HLA-A*02:02 (setting [1]); 19 nM in the assay with HLA-A*02:06 (setting [1]).

For KIVQLPKRGV, the half-maximal inhibitory concentration (IC50) with HLA-A*68:02 (setting [1]) is 62600 nM; in the assay with HLA-A*02:03 (setting [1]), 51 nM; in the assay with HLA-A*02:01 (setting [1]), 2240 nM; with HLA-A*02:02 (setting [1]), 4120 nM; with HLA-A*02:06 (setting [1]), 2250 nM.

In the case of KLFPRLPGI, the IC50 in the assay with HLA-A*68:02 (setting [2]) was determined as 40200 nM; in the assay with HLA-A*02:03 (setting [2]) it was 0.5 nM; with HLA-A*02:01 (setting [2]), 1.3 nM; in the assay with HLA-A*02:02 (setting [2]), 8.3 nM; with HLA-A*02:06 (setting [2]), 2.2 nM.

With KLFTIAMWLL, the half-inhibitory concentration (IC50) with HLA-A*68:02 (source organism: SARS-CoV1) came out at 9420 nM; in the assay with HLA-A*02:03 (source organism: SARS-CoV1) it was 709 nM; in the assay with HLA-A*02:01 (source organism: SARS-CoV1) it was 30 nM; with HLA-A*02:02 (source organism: SARS-CoV1) it was 8.5 nM; with HLA-A*02:06 (source organism: SARS-CoV1), 262 nM.

For the sequence KLLIVLTCI, the concentration for half-maximal inhibition (IC50) with HLA-A*68:02 (source organism: SARS-CoV1) was found to be 5470 nM; with HLA-A*02:03 (source organism: SARS-CoV1), 1940 nM; with HLA-A*02:01 (source organism: SARS-CoV1) it was 229 nM; with HLA-A*02:02 (source organism: SARS-CoV1), 260 nM; with HLA-A*02:06 (source organism: SARS-CoV1) it was 449 nM.

In the case of KLLNMRDLI, the IC50 in the assay with HLA-A*68:02 (setting [1]) turned out to be 30200 nM; with HLA-A*02:03 (setting [1]), 329 nM; with HLA-A*02:01 (setting [1]), 18 nM; with HLA-A*02:02 (setting [1]) it was 496 nM; in the assay with HLA-A*02:06 (setting [1]), 44 nM.

Turning to KLLNMRDLIV, the IC50 with HLA-A*68:02 (setting [1]) was ≥ 70000 nM; with HLA-A*02:03 (setting [1]), 29 nM; with HLA-A*02:01 (setting [1]), 1.1 nM; with HLA-A*02:02 (setting [1]) it was 194 nM; with HLA-A*02:06 (setting [1]) it was 2.8 nM.

A word on the IC50: it is the point on the concentration scale where inhibition reaches its midpoint.
